Source: publication PMC7261417

Target: T1, aquaporin-Z, P60844
T1 chain: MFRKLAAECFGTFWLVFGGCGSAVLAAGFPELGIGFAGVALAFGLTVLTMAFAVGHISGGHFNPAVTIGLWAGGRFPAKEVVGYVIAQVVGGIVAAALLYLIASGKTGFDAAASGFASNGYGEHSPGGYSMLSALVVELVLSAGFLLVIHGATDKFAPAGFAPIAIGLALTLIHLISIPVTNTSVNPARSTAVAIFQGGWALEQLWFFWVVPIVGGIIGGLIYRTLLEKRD
Assay: native MS
Conditions: remark: other sources report otherwise

- stoichiometry N: 4
B1: aquaporin-Z, P60844 1-231 (natural protein)
chain: MFRKLAAECFGTFWLVFGGCGSAVLAAGFPELGIGFAGVALAFGLTVLTMAFAVGHISGGHFNPAVTIGLWAGGRFPAKEVVGYVIAQVVGGIVAAALLYLIASGKTGFDAAASGFASNGYGEHSPGGYSMLSALVVELVLSAGFLLVIHGATDKFAPAGFAPIAIGLALTLIHLISIPVTNTSVNPARSTAVAIFQGGWALEQLWFFWVVPIVGGIIGGLIYRTLLEKRD
modifications: here or on the partner: multiple N-terminal formylation modifications; multiple N-terminal formylation modifications
